Columns and labels:
Dna2;Cdc24-YFH = Dna2;Cdc24-YFH (Schizosaccharomyces …, UniProt Q9URU2;O75004 1-1397;1-501, |); experiment: EMSA; 1 mM EDTA, no divalent cations; 100-300 ng Dna2-Cdc24; 50 mM Tris-HCl pH 7.5, 1 mM EDTA, 1 mM DTT, 0.1 mg/ml BSA, 50 mM NaCl, 5% glycerol, 15 fmol DNA in 10 µl, room temperature 30 min; 5% PAGE in 1x TBE; details: protein: native;native; tags: none stated (co-expressed with Cdc24-YFH);YFP-FLAG-His6; copies: 1;1; label: 5' 32P on oligo461; 18 bp duplex with 5' overhang 31 nt on oligo461
Dna2;Cdc24-YFH, sequence (Q9URU2 whole entry, chain 1 of 2): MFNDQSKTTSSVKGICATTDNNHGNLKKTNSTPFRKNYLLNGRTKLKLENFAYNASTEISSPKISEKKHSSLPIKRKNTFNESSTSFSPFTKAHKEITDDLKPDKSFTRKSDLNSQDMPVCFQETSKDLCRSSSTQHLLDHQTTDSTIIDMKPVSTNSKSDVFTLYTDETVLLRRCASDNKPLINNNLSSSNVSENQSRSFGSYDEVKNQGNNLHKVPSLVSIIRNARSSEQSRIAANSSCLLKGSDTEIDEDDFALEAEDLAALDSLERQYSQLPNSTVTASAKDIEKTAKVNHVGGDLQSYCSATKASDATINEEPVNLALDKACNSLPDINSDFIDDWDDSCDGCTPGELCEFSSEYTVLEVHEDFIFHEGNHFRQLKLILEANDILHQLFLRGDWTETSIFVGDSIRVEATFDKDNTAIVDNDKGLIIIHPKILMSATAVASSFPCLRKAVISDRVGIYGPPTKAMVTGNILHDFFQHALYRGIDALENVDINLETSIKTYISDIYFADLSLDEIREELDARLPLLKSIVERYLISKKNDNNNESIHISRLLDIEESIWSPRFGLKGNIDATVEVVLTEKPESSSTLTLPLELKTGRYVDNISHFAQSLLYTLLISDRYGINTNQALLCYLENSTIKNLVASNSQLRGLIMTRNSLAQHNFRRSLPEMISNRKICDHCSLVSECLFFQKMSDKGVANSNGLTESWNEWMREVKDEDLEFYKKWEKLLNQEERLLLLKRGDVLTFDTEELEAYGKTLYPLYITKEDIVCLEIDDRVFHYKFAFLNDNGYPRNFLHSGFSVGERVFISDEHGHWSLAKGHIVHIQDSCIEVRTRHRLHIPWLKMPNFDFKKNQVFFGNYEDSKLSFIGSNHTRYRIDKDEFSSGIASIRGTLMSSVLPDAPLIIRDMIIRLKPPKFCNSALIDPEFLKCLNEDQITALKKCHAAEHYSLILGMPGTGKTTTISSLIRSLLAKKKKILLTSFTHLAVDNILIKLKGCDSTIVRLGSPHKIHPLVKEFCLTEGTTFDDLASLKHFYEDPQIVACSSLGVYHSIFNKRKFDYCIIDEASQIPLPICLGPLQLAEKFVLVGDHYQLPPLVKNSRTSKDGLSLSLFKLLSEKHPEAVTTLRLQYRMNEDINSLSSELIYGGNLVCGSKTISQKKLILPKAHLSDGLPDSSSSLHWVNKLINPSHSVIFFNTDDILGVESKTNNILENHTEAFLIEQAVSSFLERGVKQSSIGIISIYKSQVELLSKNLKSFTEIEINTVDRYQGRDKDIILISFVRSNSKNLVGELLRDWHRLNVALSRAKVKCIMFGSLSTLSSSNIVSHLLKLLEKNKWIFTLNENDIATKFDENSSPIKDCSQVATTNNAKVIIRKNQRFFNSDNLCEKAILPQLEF
Dna2;Cdc24-YFH, sequence (O75004 whole entry, chain 2 of 2): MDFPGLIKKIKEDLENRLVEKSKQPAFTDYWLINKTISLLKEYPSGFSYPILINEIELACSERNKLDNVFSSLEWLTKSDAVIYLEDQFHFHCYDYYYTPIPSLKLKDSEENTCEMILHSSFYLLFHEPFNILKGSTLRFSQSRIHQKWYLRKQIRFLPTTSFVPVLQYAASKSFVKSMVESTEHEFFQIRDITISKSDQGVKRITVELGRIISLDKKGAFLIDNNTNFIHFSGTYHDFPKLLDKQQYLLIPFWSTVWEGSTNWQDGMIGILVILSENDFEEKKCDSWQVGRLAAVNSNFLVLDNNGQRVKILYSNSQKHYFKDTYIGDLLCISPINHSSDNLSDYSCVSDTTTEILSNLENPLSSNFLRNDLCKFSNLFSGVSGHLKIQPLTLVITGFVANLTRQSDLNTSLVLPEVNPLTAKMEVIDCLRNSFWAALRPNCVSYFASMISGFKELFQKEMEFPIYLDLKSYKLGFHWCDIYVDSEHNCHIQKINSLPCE

Dna2;Cdc24-YFH;RPA = Dna2;Cdc24-YFH;RPA (Schizosaccharomyces …, UniProt Q9URU2;O75004;Q92372;Q92373;Q92374 1-1397;1-501;1-609;1-279;1-104, ||); experiment: EMSA; 1 mM EDTA; supershifted higher-order complex, no Pxd1; 50 mM Tris-HCl pH 7.5, 1 mM EDTA, 1 mM DTT, 0.1 mg/ml BSA, 50 mM NaCl, 5% glycerol, 15 fmol DNA in 10 µl, room temperature 30 min; 5% PAGE in 1x TBE; details: protein: native;native;recombinant; tags: none stated (co-expressed with Cdc24-YFH);YFP-FLAG-His6;6xHis-GST on Rpa1 in plasmid pDB2129; copies: 1;1;1;1;1; label: 5' 32P on oligo461; 18 bp duplex with 5' overhang 31 nt on oligo461

B1: 5' overhang DNA (oligo461/oligo463) (dsDNA)
DNA 1: CACGCTACCGAATTCTGACTTGCTAGGACATCTTTGCCCACGTTGACCC
DNA 2: GGGTCAACGTGGGCAAAG
binding result (Dna2;Cdc24-YFH): binds
binding result (Dna2;Cdc24-YFH;RPA): binds

— article PMC4159138, “Fission Yeast Pxd1 Promotes Proper DNA Repair by Activating Rad16^XPF and Inhibiting Dna2” (PLoS Biology, 2014)
